From the supplement of paper PMC10567573 come the findings set out here.

Sequences and labels used below:
B1: RAB40A (parent)
chain: NWLGRPSKVLSLQDLCCRTIVSCT
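Also: lentivirally expressed fusions sorted by FACS into six bins by GFP to DsRed ratio, PSI derived from sequencing read proportions per bin multiplied by bin number.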

This series covers variants of B1. In words: protein stability index of a GFP-peptide fusion (GPS, HEK-293T) (PSI 1-6); higher = more stable. The following applies: c terminus: a fixed tail appended.
On to NWWGRPSKVLSLQDLCCRTIVSCT, for which the protein stability index is 2.11.
Next, NWYGRPSKVLSLQDLCCRTIVSCT: 2.51.
Consider NWLGRQSKVLSLQDLCCRTIVSCT, for which the protein stability index is 2.06.
As for NWLGRSSKVLSLQDLCCRTIVSCT, the protein stability index came out at 2.38.
Regarding NWLGRDSKVLSLQDLCCRTIVSCT, the protein stability index was 2.48.
For NWLGRMSKVLSLQDLCCRTIVSCT, the protein stability index amounted to 1.76.
Turning to NWLGRWSKVLSLQDLCCRTIVSCT, the protein stability index was 2.11.
With NWLGRVSKVLSLQDLCCRTIVSCT the figure was 1.91; with NWLGRFSKVLSLQDLCCRTIVSCT, 2.17.
Turning to NWLGRHSKVLSLQDLCCRTIVSCT, the protein stability index was determined as 2.21.
Turning to NWLGRKSKVLSLQDLCCRTIVSCT, the protein stability index stood at 2.06.
Take NWLGRASKVLSLQDLCCRTIVSCT: the protein stability index worked out at 1.79.
NWLGRISKVLSLQDLCCRTIVSCT: the protein stability index was determined as 2.4.
Regarding NWLGRRSKVLSLQDLCCRTIVSCT, the protein stability index came out at 2.29.
NWLGRESKVLSLQDLCCRTIVSCT: the protein stability index amounted to 2.55.
With NWLGRLSKVLSLQDLCCRTIVSCT the figure was 1.76; with NWLGRCSKVLSLQDLCCRTIVSCT, 2.13.
Turning to NWLGRYSKVLSLQDLCCRTIVSCT, the protein stability index is 1.88.
Consider NWLGRTSKVLSLQDLCCRTIVSCT, for which the protein stability index was 2.14.
Turning to NWLGRNSKVLSLQDLCCRTIVSCT, the protein stability index is 2.66.
Consider NWLGRGSKVLSLQDLCCRTIVSCT, for which the protein stability index turned out to be 2.25.
For the variant NWLGRPWKVLSLQDLCCRTIVSCT, the protein stability index is 1.82.
Take NWLGRPKKVLSLQDLCCRTIVSCT: the protein stability index came to 2.59.
For the variant NWLGRPDKVLSLQDLCCRTIVSCT, the protein stability index was determined as 2.28.
As for NWLGRPRKVLSLQDLCCRTIVSCT, the protein stability index is 2.02.
For NWLGRPVKVLSLQDLCCRTIVSCT, the protein stability index was 2.22.
Take NWLGRPCKVLSLQDLCCRTIVSCT: the protein stability index was 2.21.
NWLGRPEKVLSLQDLCCRTIVSCT: the protein stability index amounted to 2.12.
With NWLGRPIKVLSLQDLCCRTIVSCT, the protein stability index was determined as 2.25.
Consider NWLGRPQKVLSLQDLCCRTIVSCT, for which the protein stability index was 2.47.
NWLGRPHKVLSLQDLCCRTIVSCT: the protein stability index was 1.96.
For NWLGRPAKVLSLQDLCCRTIVSCT, the protein stability index turned out to be 2.24.
With NWLGRPTKVLSLQDLCCRTIVSCT, the protein stability index came to 2.41.
As for NWLGRPPKVLSLQDLCCRTIVSCT, the protein stability index amounted to 2.27.
With NWLGRPNKVLSLQDLCCRTIVSCT the figure was 1.95.
In the case of NWLGRPFKVLSLQDLCCRTIVSCT, the protein stability index is 2.28.
As for NWLGRPMKVLSLQDLCCRTIVSCT, the protein stability index was 2.03.
With NWLGRPGKVLSLQDLCCRTIVSCT the figure was 2.15; with NWLGRPLKVLSLQDLCCRTIVSCT, 2.13; with NWLGRPYKVLSLQDLCCRTIVSCT, 1.92.
With NWLPRPSKVLSLQDLCCRTIVSCT the figure was 2.42.
Regarding NWLFRPSKVLSLQDLCCRTIVSCT, the protein stability index stood at 2.23.
As to NWLLRPSKVLSLQDLCCRTIVSCT, the protein stability index was 2.29.
Next, NWLCRPSKVLSLQDLCCRTIVSCT: 1.5; NWLERPSKVLSLQDLCCRTIVSCT: 2.77; NWLKRPSKVLSLQDLCCRTIVSCT: 2.48.
For the variant NWLQRPSKVLSLQDLCCRTIVSCT, the protein stability index came to 2.34.
For NWLIRPSKVLSLQDLCCRTIVSCT, the protein stability index turned out to be 2.13.
Turning to NWLYRPSKVLSLQDLCCRTIVSCT, the protein stability index was 2.35.
For the variant NWLVRPSKVLSLQDLCCRTIVSCT, the protein stability index is 2.56.
With NWLRRPSKVLSLQDLCCRTIVSCT, the protein stability index amounted to 2.42.
With NWLHRPSKVLSLQDLCCRTIVSCT the figure was 2.33; with NWLSRPSKVLSLQDLCCRTIVSCT, 2.21; with NWLDRPSKVLSLQDLCCRTIVSCT, 2.57.
With NWLTRPSKVLSLQDLCCRTIVSCT the figure was 2.07; with NWLARPSKVLSLQDLCCRTIVSCT, 2.73; with NWLMRPSKVLSLQDLCCRTIVSCT, 2.34.
Consider NWLNRPSKVLSLQDLCCRTIVSCT, for which the protein stability index came to 2.27.
Turning to NWLWRPSKVLSLQDLCCRTIVSCT, the protein stability index came out at 2.09.
Take NWLGWPSKVLSLQDLCCRTIVSCT: the protein stability index is 3.09.
Next, NWLGGPSKVLSLQDLCCRTIVSCT: 2.35; NWLGPPSKVLSLQDLCCRTIVSCT: 3.14.
As for NWLGSPSKVLSLQDLCCRTIVSCT, the protein stability index was found to be 2.69.
For NWLGIPSKVLSLQDLCCRTIVSCT, the protein stability index amounted to 2.2.
On to NWLGDPSKVLSLQDLCCRTIVSCT, for which the protein stability index was 2.51.
For NWLGNPSKVLSLQDLCCRTIVSCT, the protein stability index stood at 2.56.
Next, NWLGYPSKVLSLQDLCCRTIVSCT: 2.06; NWLGVPSKVLSLQDLCCRTIVSCT: 2.52.
With NWLGCPSKVLSLQDLCCRTIVSCT, the protein stability index is 2.76.
With NWLGLPSKVLSLQDLCCRTIVSCT the figure was 2.06; with NWLGAPSKVLSLQDLCCRTIVSCT, 2.46; with NWLGHPSKVLSLQDLCCRTIVSCT, 2.25.
NWLGFPSKVLSLQDLCCRTIVSCT: the protein stability index was found to be 2.27.
Take NWLGTPSKVLSLQDLCCRTIVSCT: the protein stability index amounted to 2.42.
For NWLGEPSKVLSLQDLCCRTIVSCT, the protein stability index was 2.7.
Consider NWLGQPSKVLSLQDLCCRTIVSCT, for which the protein stability index worked out at 2.55.
As for NWLGMPSKVLSLQDLCCRTIVSCT, the protein stability index was 2.85.
On to NWLGKPSKVLSLQDLCCRTIVSCT, for which the protein stability index is 2.42.
In the case of NWLGRPSMVLSLQDLCCRTIVSCT, the protein stability index was 1.75.
Next, NWLGRPSRVLSLQDLCCRTIVSCT: 2.65.
As for NWLGRPSTVLSLQDLCCRTIVSCT, the protein stability index turned out to be 1.88.
Turning to NWLGRPSNVLSLQDLCCRTIVSCT, the protein stability index came to 2.52.
With NWLGRPSHVLSLQDLCCRTIVSCT the figure was 2.16; with NWLGRPSIVLSLQDLCCRTIVSCT, 2.11.
Turning to NWLGRPSCVLSLQDLCCRTIVSCT, the protein stability index stood at 2.08.
In the case of NWLGRPSEVLSLQDLCCRTIVSCT, the protein stability index worked out at 2.26.
With NWLGRPSAVLSLQDLCCRTIVSCT, the protein stability index is 1.98.
For the variant NWLGRPSDVLSLQDLCCRTIVSCT, the protein stability index was determined as 2.1.
With NWLGRPSFVLSLQDLCCRTIVSCT the figure was 2.35; with NWLGRPSLVLSLQDLCCRTIVSCT, 2.
With NWLGRPSPVLSLQDLCCRTIVSCT, the protein stability index was found to be 2.29.
Next, NWLGRPSQVLSLQDLCCRTIVSCT: 1.97.
Turning to NWLGRPSGVLSLQDLCCRTIVSCT, the protein stability index was 2.01.
As for NWLGRPSSVLSLQDLCCRTIVSCT, the protein stability index came out at 2.31.
